Experimental data taken from patent US20190031783A1 (AbbVie / Abbott, published 2019).

Columns and labels:
[1] = biological target: T1, full-length human DLL4 on HEK293G cells (human, UniProt Q9NR61 27-685); experiment: cell-based or functional assay
[2] = biological target: T1, full-length human DLL4 on HEK293G cells; experiment: flow cytometry (FACS) on HEK293G cells overexpressing full-length DLL4
Experimental: Stable HEK293G cell lines overexpressing full-length DLL4 were harvested from tissue culture flasks, washed four times and resuspended in phosphate buffered saline (PBS) containing 1% bovine serum albumin and 1 mM CaCl₂ (FACS buffer). 1.5×10⁵ cells were incubated with DVD binding proteins at various concentrations in FACS buffer for 60 minutes on ice. […] Following an incubation on ice (4° C., 60 minutes), cells were washed three times and resuspended in FACS buffer. Fluorescence was measured using a Becton Dickinson FACSCalibur-HTS (Becton Dickinson, San Jose, Calif.). Data was analyzed using Graphpad Prism software and EC₅₀ values were reported as the concentration of antibody to achieve 50% of maximal antibodies binding to DLL4 expressing cells.

[3] = biological target: T2, purified recombinant human DLL4 extracellular domain (ECD) (human, UniProt Q9NR61 27-529); experiment: Notch competition ELISA: inhibition of biotin DLL4 ECD binding to coated human Notch-1
T2 construct: extracellular domain; also called human DLL4529; huDLL4
Experimental: Plates were then washed 3× with wash buffer (PBS, 0.05% Tween-20) and blocked with 200 μl/well blocking buffer (D-PBS, 1% BSA, 1 mM CaCl₂, 0.05% Tween-20) for 1 hour at 25° C. […] Assay plates were washed after blocking, and incubated with DLL4/antibody mixtures (100 μl/well, 1 hour at 25° C. with shaking). Plates were washed again and 100 μl/well of streptavidin conjugated with HRP (Fitzgerald #65R-S104PHRPx, diluted 1:5,000 in blocking buffer) was added for 1 hour at 25° C. with shaking. After a final wash, plates were developed using 100 μl/well substrate (TMB Sigma #T8665), and the reaction was stopped using 100 μl/well 1N HCl, and the absorbance was read at 450 nm. Data was analyzed using Graphpad Prism software and IC₅₀ values were reported as the concentration of antibody required to achieve 50% reduction of DLL4 binding to Notch1.

[4] = biological target: T2, purified recombinant human DLL4 …; experiment: SPR (Biacore), DVD captured via anti-human Fc, DLL4 ECD injected, 25 C
Experimental: For DLL4 binding kinetic measurements the assay buffer was HBS-EPB: 10 mM Hepes, pH7.5, 150 mM NaCl, 3 mM EDTA, 0.005% Tween 20, 0.1 mg/ml BSA (Sigma A7906). For VEGF binding kinetic measurements the assay buffer was HBS-EP+(3N01B): 10 mM Hepes, pH7.5, 300 mM NaCl, 3 mM EDTA, 0.05% Tween 20, 0.1 mg/ml BSA (Sigma A7906). For example, approximately 9000 RU of goat anti-human Fc specific polyclonal antibody (Thermo Fisher Scientific Inc., Rockford, Ill.) diluted in 10 mM sodium acetate (pH 4.5) is directly immobilized across a CM5 research grade biosensor chip using a standard amine coupling kit according to manufacturer's instructions and procedures at 25 ug/ml. Unreacted moieties on the biosensor surface are blocked with ethanolamine. For kinetic analysis, rate equations derived from the 1:1 Langmuir binding model are fitted simultaneously to multiple antigen injections (using global fit analysis) with the use of Scrubber 2 (BioLogic Software), Biacore Biaevaluation 4.0.1 software or Biacore T100 Evaluation software. Purified antibodies are diluted in running buffer for capture across goat anti-human Fc reaction surfaces. Antibodies to be captured as a ligand (1 ug/ml) are injected over reaction matrices at a flow rate of 10 ul/min. During the assay, all measurements are referenced against the capture surface alone (i.e. with no captured antibody). […] The equilibrium dissociation constant KD (M) of the reaction between antibodies and the target antigen is then calculated from the kinetic rate constants by the following formula: KD=Koff/Kₒₙ. Binding is recorded as a function of time and kinetic rate constants are calculated.

Binder | Notch Activation IC50 [1] | EC50 [2] | IC50 [3] | Kd [4]
h1A11.1-LL-Av (bispecific antibody, human IgG1, DVD-Ig; also called h1A11.1-LL-Av DVD) VH: EVQLVESGGGLVQPGGSLRLSCAASGFTFSNFPMAWVRQAPGKGLEWVATISSSDGTTYYRDSVKGRFTISRDNAKNSLYLQMNSLRAEDTAVYYCARGYYNSPFAYWGQGTLVTVSSASTKGPSVFPLAPEVQLVESGGGLVQPGGSLRLSCAASGYTFTNYGMNWVRQAPGKGLEWVGWINTYTGEPTYAADFKRRFTFSLDTSKSTAYLQMNSLRAEDTAVYYCAKYPHYYGSSHWYFDVWGQGTLVTVSS VL: DIQMTQSPSSLSASVGDRVTITCRASEDIYSNLAWYQQKPGKAPKLLIYDTNNLADGVPSRFSGSGSGTDFTLTISSLQPEDFATYYCQQYNNYPPTFGQGTKLEIKRTVAAPSVFIFPPDIQMTQSPSSLSASVGDRVTITCSASQDISNYLNWYQQKPGKAPKVLIYFTSSLHSGVPSRFSGSGSGTDFTLTISSLQPEDFATYYCQQYSTVPWTFGQGTKVEIKR | 4.56 nM | 5.04 nM | 0.79 nM | 
h1A11.1-LS-Av (bispecific antibody, human IgG1, DVD-Ig; also called h1A11.1-LS-Av DVD) VH: EVQLVESGGGLVQPGGSLRLSCAASGFTFSNFPMAWVRQAPGKGLEWVATISSSDGTTYYRDSVKGRFTISRDNAKNSLYLQMNSLRAEDTAVYYCARGYYNSPFAYWGQGTLVTVSSASTKGPSVFPLAPEVQLVESGGGLVQPGGSLRLSCAASGYTFTNYGMNWVRQAPGKGLEWVGWINTYTGEPTYAADFKRRFTFSLDTSKSTAYLQMNSLRAEDTAVYYCAKYPHYYGSSHWYFDVWGQGTLVTVSS VL: DIQMTQSPSSLSASVGDRVTITCRASEDIYSNLAWYQQKPGKAPKLLIYDTNNLADGVPSRFSGSGSGTDFTLTISSLQPEDFATYYCQQYNNYPPTFGQGTKLEIKRTVAAPDIQMTQSPSSLSASVGDRVTITCSASQDISNYLNWYQQKPGKAPKVLIYFTSSLHSGVPSRFSGSGSGTDFTLTISSLQPEDFATYYCQQYSTVPWTFGQGTKVEIKR | 4.59 nM | 5 nM | 0.76 nM | 11 nM
h1A11.1-SS-Av (bispecific antibody, human IgG1, DVD-Ig; also called h1A11.1-SS-Av DVD) VH: EVQLVESGGGLVQPGGSLRLSCAASGFTFSNFPMAWVRQAPGKGLEWVATISSSDGTTYYRDSVKGRFTISRDNAKNSLYLQMNSLRAEDTAVYYCARGYYNSPFAYWGQGTLVTVSSASTKGPEVQLVESGGGLVQPGGSLRLSCAASGYTFTNYGMNWVRQAPGKGLEWVGWINTYTGEPTYAADFKRRFTFSLDTSKSTAYLQMNSLRAEDTAVYYCAKYPHYYGSSHWYFDVWGQGTLVTVSS VL: DIQMTQSPSSLSASVGDRVTITCRASEDIYSNLAWYQQKPGKAPKLLIYDTNNLADGVPSRFSGSGSGTDFTLTISSLQPEDFATYYCQQYNNYPPTFGQGTKLEIKRTVAAPDIQMTQSPSSLSASVGDRVTITCSASQDISNYLNWYQQKPGKAPKVLIYFTSSLHSGVPSRFSGSGSGTDFTLTISSLQPEDFATYYCQQYSTVPWTFGQGTKVEIKR | 7.47 nM | 3.75 nM |  | 12 nM
